The nanobody polyreactivity screen of Harvey et al. (2022)

Assay: yeast display, Sf9 membrane polyspecificity reagent, FACS + sequencing; frameworks hold sequencing errors
How it was run: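 Galactose induction of a Saccharomyces cerevisiae BJ5465 synthetic nanobody display library ran 36–48 hours. The cells were then stained for 1 hour at 4 °C with 10% biotinylated, detergent-solubilized Sf9 membrane reagent, pulled down on streptavidin microbeads and FACS-sorted into low and high (top ~1%) gates on expression and reagent-binding fluorescence. Labels for polyreactivity follow the gate of origin.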

QVQLVESGGGLVQAGGSLRLSCAASGSIFNIYAMGLYRQAPGKERELVATITGIADSTYYADSVKGRFTISRDNAKNTVYLQMNSLKPEDTAVYYCAADKYVAEYDYWGQGTQVTVSS
polyreactivity (PSR sort gate): low polyreactivity

QVQLVESGGGLVQAGGSLRLSCAASGSIFNIYAMGWYRQAPGKERELVAAIRWTGGSTYYADSVKGRFTISRDNAKNTVYLQMHSLKPEDTALYYSAARTSRGGHYYWGHGTQVTVSS
polyreactivity (PSR sort gate): high polyreactivity

QVQLVESGGGLVQAGGSLRLSCAASGSIFNLYAMGWYRQAPGKERELVAGIRWSGGRTYYADSVKGRFTISRDNAKNTVYLQMNSLKPEDTAVYYCNAVGYLSWWNDYDYWGQGTQVTVSS
polyreactivity (PSR sort gate): high polyreactivity

QVQLVESGGGLVQAGGSLRLSCAASGSIFNPYVMGWYRQAPGKERELVAAISSSGGRTYYADSVKGRFTISRDNAKNTVYLQMNSLKPEDTAVYYCAAIPRQGYDYWGQGTQVTVSS
polyreactivity (PSR sort gate): high polyreactivity

QVQLVESGGGLVQAGGSLRLSCAASGSIFNRYAMGWYRQAPGKERELVAAITWNGGSTYYADSVKGRFTISRDNAKNTVYLQMNSLKPEDTAVYYCNKASLRGSYARYSYDYWGQGTQVTVSS
polyreactivity (PSR sort gate): high polyreactivity

QVQLVESGGGLVQAGGSLRLSCAASGSIFNTYAMGWYRQAPGKERELVAAISRSGDSTYYADSVKGRFTISRDNAKNTVYLQMNSLKPEDSAVYYCATGRTDHGYYYWGQGTQVTVSS
polyreactivity (PSR sort gate): high polyreactivity

QVQLVESGGGLVQAGGSLRLSCAASGSIFNWNTMGWYRQAPGKERELVAAITYDGGTTYYADSVKGRFTISRDNAKNTVYLQMNSLKPEDTAVYYCAAEFLYKYGRYDYWGQGTQVTVSS
polyreactivity (PSR sort gate): high polyreactivity

QVQLVESGGGLVQAGGSLRLSCAASGSIFNWNTMGWYRQAPGKERELVAAITYDGGTTYYADSVKGRFTISRDYAKNNVYLQMISLKPEDTAVYYCAAEFLYKYGRYDYWGQGTQVTVSS
polyreactivity (PSR sort gate): high polyreactivity

QVQLVESGGGLVQAGGSLRLSCAASGSIFNYNDMGWYRQAPGKERELVAAIDSSGTSTYYADSVKGRFTISRDNAKNTVYLQMNSLKPEDTAVYYCNADSSLGFGYWGQGTLVTVSS
polyreactivity (PSR sort gate): low polyreactivity

QVQLVESGGGLVQAGGSLRLSCAASGSIFNYNDMGWYRQAPGKERELVAAIDSSGTSTYYADSVKGRFTISRDNAKNTVYLQMTSLKPEDTAVYYCNADYRGWGYHMDYWGQGTQVTVSS
polyreactivity (PSR sort gate): low polyreactivity

QVQLVESGGGLVQAGGSLRLSCAASGSIFNYNTMGWYRQAPGKERELVADISWSGGSTYYADSVKGRFTISRDNAKNTVYLQMNSLKPEDTAVYYCAADFGLFPYVGTGYYYWGQGTQVTVSS
polyreactivity (PSR sort gate): low polyreactivity

QVQLVESGGGLVQAGGSLRLSCAASGSIFNYYAMGWYRQAPGKERDLVAAITTSGGNTYYADSVKGRFTISRDNAKNTVYLLMYSLKPEDTAVYYCAADYWASGGEYDYWGQGTQVSVSS
polyreactivity (PSR sort gate): low polyreactivity

QVQLVESGGGLVQAGGSLRLSCAASGSIFPANAMGWYRQAPGKERELVAAISRRGGNTNYADSVKGRFTISRDNAKNTVYLQMNSLKPEDTAVYYCAAYYYYRRYDYWGQGTQVTVSS
polyreactivity (PSR sort gate): high polyreactivity

QVQLVESGGGLVQAGGSLRLSCAASGSIFPANAMGWYRQAPGKEWEFVAAINWSTGTTYYADSVKGRFTIARDNAKNTVYLQMNRLKPEETPVYYCNASDQAKYDYWGQGTQVTVSS
polyreactivity (PSR sort gate): low polyreactivity

QVQLVESGGGLVQAGGSLRLSCAASGSIFPANAMGWYRQPPGKERELVAAISRRGGNTYYADSVKGRFTISRDNAKNTVYLQMNSLKPEDTAVYYCAAYYFYRRYDYWGQGTQVTVSS
polyreactivity (PSR sort gate): high polyreactivity

QVQLVESGGGLVQAGGSLRLSCAASGSIFPAYAMGWYRQAPGKERELVASITGSGGSTYYADSVKGRFTISRDNAKNTVYLQMNSLKPEDTAVYYCNARYYVYSATVDRYYHFYYWGQGTQVTVSS
polyreactivity (PSR sort gate): high polyreactivity

QVQLVESGGGLVQAGGSLRLSCAASGSIFPAYTMGWYRQAPGKERELVAAIPYSGARSTYYADSVKGRVTNSRDNAKNTVYLQMNSLKPEDTAVYYCNARDRARYFYDMDYWGQGTQVTVSS
polyreactivity (PSR sort gate): low polyreactivity

QVQLVESGGGLVQAGGSLRLSCAASGSIFPENAMGWYRQAPGKERELVAAITSSDSSTYYADSVKGRFTISRDNAKNTVYLHMNSLKPEDTAVYSCAAYRVGFRFREYYWGQGTQVTVSS
polyreactivity (PSR sort gate): low polyreactivity

QVQLVESGGGLVQAGGSLRLSCAASGSIFPENAMGWYRQAPGKERELVAAITSSDSSTYYADSVKGRFTISRDNAKNTVYLQMNSLKPEDTAVYYCAAYRVGFRFREYYWGQGTQVTVSS
polyreactivity (PSR sort gate): low polyreactivity

QVQLVESGGGLVQAGGSLRLSCAASGSIFPFNAMGCYRQAPGKERELVAAISYSGGSTYYADSVKGRFTISRDNAKNTVYLQMTRLKPEDTAVYYCNRLLRRHLYIFYYWGQGTLVTVSS
polyreactivity (PSR sort gate): high polyreactivity

QVQLVESGGGLVQAGGSLRLSCAASGSIFPFNAMGWYRQAPGKERELVAAISRRGTGTYYADSVKGRFTISRDNAKNTVYLQMNSLKPEDTAVYYCNAVVRAGHYDYWGQGTQVTLSS
polyreactivity (PSR sort gate): high polyreactivity

QVQLVESGGGLVQAGGSLRLSCAASGSIFPFYAMGWFRQAPGKERELVAAISWSGGSTYYADSVKGRFTISRDNAKNTVYLQMNSLKPEDTAVYYCNRADGYSFSLNRSDYWGQGTQVTVSS
polyreactivity (PSR sort gate): low polyreactivity

QVQLVESGGGLVQAGGSLRLSCAASGSIFPFYAMGWYRQAPGKERELVATISWSGGRTYYADSVKGRFTISRDNAKYTVDLQMNTLKPEDTAVYYCAAGSYHYPNAYYYWGQGTQVTVSS
polyreactivity (PSR sort gate): high polyreactivity

QVQLVESGGGLVQAGGSLRLSCAASGSIFPGYAMAWYRQAPGKERELVAAISRSGGITYYADSVKGRFTISRDNAKNTVYLQMNSLKPEDTSVYYCAKTLPSNGHYDYWGQGTQVTVSS
polyreactivity (PSR sort gate): low polyreactivity

QVQLVESGGGLVQAGGSLRLSCAASGSIFPGYAMGWYRQAPGKERELVAAIDRSGGSTYYADSVKGRFTISRDNAKNTVYLQMNSLKPEDTAVYYCNRVFTWRYGYRYEYWGQGTQVTVSS
polyreactivity (PSR sort gate): high polyreactivity

QVQLVESGGGLVQAGGSLRLSCAASGSIFPGYAMGWYRQAPGKERELVATITWSGGSTYYADSVKGRFTISRDNAKNTVYLQMISLKTEDTAVYYCNADSNCYYQWNYYGLYDYWGQGTQVTVSS
polyreactivity (PSR sort gate): low polyreactivity

QVQLVESGGGLVQAGGSLRLSCAASGSIFPGYAMGWYRQAPGKERELVATITWSGGSTYYADSVKGRFTISRDNAKNTVYLQMNSLIPEDTAVYYCNADSNWYYQWNYYGLYDYWGQGTQVTVSS
polyreactivity (PSR sort gate): low polyreactivity

QVQLVESGGGLVQAGGSLRLSCAASGSIFPGYAMGWYRQAPGKERELVATITYSDGSTYYADSVKGRFTISRDNAKNTVYLQMNSLKPEDTAVYYCAVTYWWYYGYDYWGQGTQVTVSS
polyreactivity (PSR sort gate): low polyreactivity

QVQLVESGGGLVQAGGSLRLSCAASGSIFPGYSMGWCRQAPGKERELVAAISISGGDTYYADSVKGRFTISRDNAKNTGYFQMNSLKPEDTSVYHCNKEDDDREWFEYYWWYDYWGQGTQVTVTS
polyreactivity (PSR sort gate): high polyreactivity

QVQLVESGGGLVQAGGSLRLSCAASGSIFPGYVMGWYRQAPGTERELVAAISWSGGSTYYADSVKGRFTISRDNAMNTVYLQLNSLKPEDTAVYYWAADYSYYHGPSRHKHDYWGQGTQVTVSS
polyreactivity (PSR sort gate): low polyreactivity

QVQLVESGGGLVQAGGSLRLSCAASGSIFPIYAMGWYRQAPGKERELVAAINRSGGSTYYADSVKGRFTISRDNAKNTVYLQMNSLKPEDTAVYYCNADYGYHNQLFWGYYGWSSDHWGQGTQVTVSS
polyreactivity (PSR sort gate): low polyreactivity

QVQLVESGGGLVQAGGSLRLSCAASGSIFPIYAMGWYRQAPGKERELVAAITRSDGSTYYADSVKGRFTISRDNAKNTVYLQMNSLNPEDTAVYYCGDYGYWGQGTQVTVSS
polyreactivity (PSR sort gate): low polyreactivity

QVQLVESGGGLVQAGGSLRLSCAASGSIFPIYAWGWYRQAPGKERELVAAISGSGARTYYSDSVKGRFTISRDNAKNTVYLQMNSLKPEDTAVYYCNAKYGYDSEARIVKPVRYDYWGQGTQVTVSS
polyreactivity (PSR sort gate): high polyreactivity

QVQLVESGGGLVQAGGSLRLSCAASGSIFPIYTMGWYRQAPGKERELVAAITYNAGSTYYADSVKGRFTISRDNAKNTVYLQMNSLKPEDTAVYYCAADRYYDRTFPGYDYWGQGTQVTVSS
polyreactivity (PSR sort gate): low polyreactivity

QVQLVESGGGLVQAGGSLRLSCAASGSIFPKYAMGWYRQAPGKERELVAAISRGGGSTYYADSVKGRFTISRDNAKNTVYLQMNSLKPEDTAVYYCAALFTPALSEYDYWGQGTQVTVSS
polyreactivity (PSR sort gate): high polyreactivity

QVQLVESGGGLVQAGGSLRLSCAASGSIFPLNAMGWYRQSPGKERELVATISWRGGITYYADSVKGRFTISRDNAKNTVYLQMNSLKPEDTAVYYCATVGRWNSLWYRYRYDYWGQGTQVTVSS
polyreactivity (PSR sort gate): low polyreactivity

QVQLVESGGGLVQAGGSLRLSCAASGSIFPLYDMGWSRQATGKQSELVASITSGDTTNYADSVKGRFTISRDNAKNTVYLQMISLNAEDTAVYYCATDTPTDRYAAYPNDQYYYWGQGTQVTVSS
polyreactivity (PSR sort gate): low polyreactivity

QVQLVESGGGLVQAGGSLRLSCAASGSIFPPNAMGWYRQAPGKERELVAGISQSGGSTYYADSVKGRFTISRDNAKNTVYLQMNSLKPEDTAVYYCARRSRVGYPLDSWGQGTQVTVSS
polyreactivity (PSR sort gate): high polyreactivity

QVQLVESGGGLVQAGGSLRLSCAASGSIFPPYAMGWYRQAPGKERELVASISNSGGSTYYADSVKGRFTISRDNAKNTVYLQMNSLKPEDTAVYYCAAYAVVSPSFTYGYWGQGTQVTVSS
polyreactivity (PSR sort gate): high polyreactivity

QVQLVESGGGLVQAGGSLRLSCAASGSIFPQYAMGWYRQAPGKERELVAGISGSGGGTYYADSVKGRFTISRDNAKNTVYLQMNSLKPEDTAVYDCYDYWGQGTQVTVSS
polyreactivity (PSR sort gate): low polyreactivity

QVQLVESGGGLVQAGGSLRLSCAASGSIFPRNAMGWYRQAPGKERELVAGISSGGSTNYADSVKGRFTISRDNAKNTVYLQMNSLNPEDTAVYYCAARQWIRNLGFGYSIYNYWGQGTQVTVSS
polyreactivity (PSR sort gate): high polyreactivity

QVQLVESGGGLVQAGGSLRLSCAASGSIFPRYAMGWYRQAPGKERELVAAISWSGGSTYYADSVKGRFTISRDNAKNTFYLQMNSLKPEDTAVYYCAALSKHVQVAYDPWGQGTQVTVSS
polyreactivity (PSR sort gate): high polyreactivity

QVQLVESGGGLVQAGGSLRLSCAASGSIFPRYAMGWYRQAPGKERELVAAITGSGSSTYYADSVKGRFTISRDNAKNTVYLQMNSLKPEDTAVYYCAALYGPGREYDYWGQGTQVTVSS
polyreactivity (PSR sort gate): low polyreactivity
